± gives the uncertainty stated by the source.
Experiment: self-splicing fitness, log relative to wild type (ln ratio); higher = more splicing; Tetrahymena group I intron in knt gene, E. coli kanamycin selection, DiMSum; sequences stand for … in CUCUCU…GGAGGGAAAAGUUAUCAGGCAUGCACCUGGUAGCUAGUCUUUAAACCAAUAGAUUGCAUCGGUUUAAAAGGCAAGACCGUCAAAUUGCGGGAAAGGGGUCAACAGCCGUUCAGUACCAAGUCUCAGGGGAAACUUUGAGAUGGCCUUGCAAAGGGUAUGGUAAUAAGCUGACGGACAUGGUCCUAACCACGCAGCCAAGUCCUAAGUCAACAGAUCUUCUGUUGAUAUGGAUGCAGUUCACAGACUAAAUGUCGGUCGGGGAAGAUGUAUUCUUCUCAUAAGAUAUAGUCGGACCUCUCCUUAAUGGGAGCUAGCGGAUGAAGUGAUGCAACACUGGAGCCGCUGGGAACUAAUUUGUAUGCGAAAGUAUAUUGAUUAGUUUUGGAGUACUCGUGGUCG
Procedure, shortened: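 Library with all eight P1ex-region intron nucleotides randomised, intron inside the knt kanamycin-resistance gene on pET-22b(+), in E. coli BL21(DE3). Cells grew overnight at 37°C or 30°C on LB agar with or without 25 μg/mL kanamycin (plus 100 μg/mL carbenicillin, 50 μM IPTG, 0.2% rhamnose), in six replicate transformations. Pooled colonies were amplicon-sequenced on Illumina HiSeq 2500. DiMSum fitness is the error-weighted combination of wild-type-normalised replicate fold changes, kanamycin versus none.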

Sequence	self-splicing fitness (ln) (30 °C)	self-splicing fitness (ln) (37 °C)
GGCUAGCAAUAUUACGCAAA	-1.68 ± 0.18	-0.628 ± 0.16
GGCUAGCAAUAUUACGCAAU	-0.887 ± 0.14	-0.69 ± 0.16
GGCUAGCAAUAUUACGCAGC	–	-2.29 ± 0.39
GGCUAGCAAUAUUACGCAUC	0.346 ± 0.16	0.785 ± 0.17
GGCUAGCAAUAUUACGCCGA	-1.8 ± 0.28	-1.05 ± 0.25
GGCUAGCAAUAUUACGCGGG	-3.62 ± 0.25	-3.06 ± 0.27
GGCUAGCAAUAUUACGCUAC	-3.04 ± 0.48	-2.3 ± 0.34
GGCUAGCAAUAUUACGCUCA	-2.07 ± 0.33	-0.183 ± 0.25
GGCUAGCAAUAUUACGUCUC	-0.325 ± 0.094	-0.0256 ± 0.11
GGCUAGCAAUAUUACGUGAA	-0.24 ± 0.086	-0.383 ± 0.086
GGCUAGCAAUAUUACGUGUU	-1.02 ± 0.058	0.41 ± 0.063
GGGAAGCAAUAUUACGAAGU	-2.43 ± 0.29	-1.83 ± 0.35
GGGAAGCAAUAUUACGAGAG	-3.24 ± 0.27	-2.46 ± 0.24
GGGAAGCAAUAUUACGAGGC	-3.08 ± 0.29	-1.4 ± 0.2
GGGAAGCAAUAUUACGAGUU	-2.86 ± 0.15	-1.02 ± 0.099
GGGAAGCAAUAUUACGAUGA	-0.977 ± 0.13	-0.771 ± 0.13
GGGAAGCAAUAUUACGCGCA	-0.0561 ± 0.11	-0.304 ± 0.13
GGGAAGCAAUAUUACGCGUA	-0.73 ± 0.14	-0.267 ± 0.14
GGGAAGCAAUAUUACGGACG	-0.846 ± 0.11	-0.443 ± 0.13
GGGAAGCAAUAUUACGGAGC	-1.91 ± 0.21	-1.3 ± 0.21
GGGAAGCAAUAUUACGGCCU	-3.14 ± 0.26	-1.35 ± 0.25

Sequence	self-splicing fitness (ln) (30 °C)	self-splicing fitness (ln) (37 °C)
GGGAAGCAAUAUUACGGGCA	-1.9 ± 0.19	0.154 ± 0.21
GGGAAGCAAUAUUACGGUAG	-2.65 ± 0.2	-2.32 ± 0.24
GGGAAGCAAUAUUACGGUGU	-2.2 ± 0.1	-0.483 ± 0.13
GGGAAGCAAUAUUACGUAAC	-2.91 ± 0.26	-1.06 ± 0.18
GGGAAGCAAUAUUACGUAGA	-1.36 ± 0.15	-0.824 ± 0.19
GGGAAGCAAUAUUACGUAUU	-1.87 ± 0.13	-1.58 ± 0.15
GGGAAGCAAUAUUACGUCGG	–	-0.827 ± 0.18
GGGAAGCAAUAUUACGUGCC	–	-0.148 ± 0.38
GGGAAGCAAUAUUACGUUAU	-2.98 ± 0.26	-1.33 ± 0.18
GGGCAGCAAUAUUACGACAC	-0.731 ± 0.26	0.302 ± 0.27
GGGCAGCAAUAUUACGAGUC	-1.84 ± 0.21	-1.81 ± 0.28
GGGCAGCAAUAUUACGCAUC	-2.25 ± 0.41	-0.733 ± 0.2
GGGCAGCAAUAUUACGCGAA	-0.567 ± 0.073	0.0161 ± 0.099
GGGCAGCAAUAUUACGCGCG	-0.63 ± 0.13	-0.682 ± 0.14
GGGCAGCAAUAUUACGCGGG	-1.76 ± 0.16	-1.21 ± 0.2
GGGCAGCAAUAUUACGCGUG	-0.165 ± 0.18	-1.87 ± 0.22
GGGCAGCAAUAUUACGGACG	-1.01 ± 0.056	0.591 ± 0.078
GGGCAGCAAUAUUACGGAGC	-2.15 ± 0.19	-1.12 ± 0.2
GGGCAGCAAUAUUACGGCAC	-1.17 ± 0.16	-0.328 ± 0.17
GGGCAGCAAUAUUACGGCGA	-0.562 ± 0.11	-0.245 ± 0.099
GGGCAGCAAUAUUACGGGGG	-3.44 ± 0.41	–

Sequence	self-splicing fitness (ln) (30 °C)	self-splicing fitness (ln) (37 °C)
GGGCAGCAAUAUUACGGUGU	-2.02 ± 0.1	-1.21 ± 0.099
GGGCAGCAAUAUUACGUCGU	-0.45 ± 0.11	-0.185 ± 0.1
GGGCAGCAAUAUUACGUUAC	-1.84 ± 0.16	-0.903 ± 0.23
GGGGAGCAAUAUUACGACUG	-0.399 ± 0.45	–
GGGGAGCAAUAUUACGACUU	-1.2 ± 0.16	0.242 ± 0.22
GGGGAGCAAUAUUACGCUUU	-2.18 ± 0.27	–
GGGGAGCAAUAUUACGGAAA	–	-0.21 ± 0.41
GGGGAGCAAUAUUACGGAAU	–	-1.68 ± 0.33
GGGGAGCAAUAUUACGGAGU	-1.01 ± 0.41	–
GGGGAGCAAUAUUACGGUCG	-2.08 ± 0.28	-0.686 ± 0.35
GGGGAGCAAUAUUACGUAAA	-3.12 ± 0.36	-1.18 ± 0.3
GGGGAGCAAUAUUACGUGUC	-3.68 ± 0.33	-2.19 ± 0.18
GGGUAGCAAUAUUACGAAUC	0.0354 ± 0.3	-0.646 ± 0.36
GGGUAGCAAUAUUACGACAA	-0.573 ± 0.24	-0.263 ± 0.21
GGGUAGCAAUAUUACGAGAC	-3.48 ± 0.32	-1.9 ± 0.42
GGGUAGCAAUAUUACGAGAG	-3.56 ± 0.28	-2.26 ± 0.2
GGGUAGCAAUAUUACGAGUU	-0.948 ± 0.092	-1.38 ± 0.2
GGGUAGCAAUAUUACGAUCG	-0.211 ± 0.16	-0.869 ± 0.22
GGGUAGCAAUAUUACGCAAC	–	-2.43 ± 0.44
GGGUAGCAAUAUUACGCAAU	-1.79 ± 0.31	-1.47 ± 0.39
GGGUAGCAAUAUUACGCCCG	-1.88 ± 0.25	-1.32 ± 0.17

Source: the supplement of paper PMC7877785
